According to patent US20180185455A1 (OCTAPHARMA, published 2018):

What was measured:
[1] = target: recombinant Factor VIII (UniProt P00451); assay: SPR (Biacore 2000), rFVIII coupled to CM5 chip, fragment injected
[2] = target: recombinant Factor VIII (UniProt P00451); assay: SPR (Biacore 2000), rFVIII coupled to CM5 chip, VWF injected
[3] = target: recombinant fragment III monomer with C-terminal Strep-Tag (human) (UniProt P04275); assay: SPR (Biacore 2000), fragment III monomer immobilized on CM5, FVIII concentration series injected
[4] = target: plasma derived full length Von Willebrand Factor (human) (UniProt P04275); assay: SPR (Biacore 2000), plasma derived flVWF immobilized on a CM5 chip, FVIII concentration series injected; mean of n=4 per the legend
[5] = target: recombinant fragment III dimer with C-terminal Strep-Tag (human) (UniProt P04275); assay: SPR (Biacore 2000), fragment III dimer immobilized on CM5, FVIII concentration series injected
[6] = target: T1, fragment III (SPIII, res. 764-2128) from plasma derived Von Willebrand Factor (human, UniProt P04275 764-2128); assay: SPR (Biacore 2000), collagen type III coupled to CM5 chip, fragment injected
T1 construct: Made by S. aureus V-8 protease digestion of pdVWF; also called VWF fragment III
Experimental: (§1) The analysis was carried out using Biacore 2000 instrument (GE Healthcare) according to Romjin et al. 2003 with modifications. Briefly human pepsin-digested collagen type III was covalently bound to the surface of a CM5 sensor chip. Subsequently the samples were injected over the sensor chip surface. The running buffer was 10 mM HEPES, 150 mM NaCl, 3.4 mM EDTA, 0.005% Tween 20.

[7] = target: T2, plasma derived full length Von Willebrand Factor (human, UniProt P04275 764-2813); assay: SPR (Biacore 2000), collagen type III coupled to CM5 chip, VWF injected
T2 construct: Plasma VWF is multimeric; also called pdVWF; flVWF
Experimental: as §1

Question: Which Kd [1] does the source give for “fragment III (SPIII, res. 764-2128) from plasma derived Von Willebrand Factor (from UniProt P04275 764-2128)” here?
Answer: The Kd was 6.18 nM.

Question: How did the Kd [2] turn out when “plasma derived full length Von Willebrand Factor (from UniProt P04275 764-2813)” was run?
Answer: Its Kd is 0.67 nM.

Question: How did the Kd [1] turn out when “fragment II (res. 764-1673) of Von Willebrand Factor (from UniProt P04275 764-1673)” was run?
Answer: Its Kd is 155 nM.

Question: “recombinant Factor VIII (from UniProt P00451 20-2351)” was tested. Which Kd [3] did it give?
Answer: Its Kd is 14.3 nM.

Question: And the Kd [4]?
Answer: Its Kd is 0.25 nM.

Question: What about the Kd [5] of the same molecule?
Answer: Its Kd is 1.9 nM.

B1: human pepsin-digested collagen type III (other, UniProt P02461 168-1196, looked up)
chain: GLAGYPGPAGPPGPPGPPGTSGHPGSPGSPGYQGPPGEPGQAGPSGPPGPPGAIGPSGPAGKDGESGRPGRPGERGLPGPPGIKGPAGIPGFPGMKGHRGFDGRNGEKGETGAPGLKGENGLPGENGAPGPMGPRGAPGERGRPGLPGAAGARGNDGARGSDGQPGPPGPPGTAGFPGSPGAKGEVGPAGSPGSNGAPGQRGEPGPQGHAGAQGPPGPPGINGSPGGKGEMGPAGIPGAPGLMGARGPPGPAGANGAPGLRGGAGEPGKNGAKGEPGPRGERGEAGIPGVPGAKGEDGKDGSPGEPGANGLPGAAGERGAPGFRGPAGPNGIPGEKGPAGERGAPGPAGPRGAAGEPGRDGVPGGPGMRGMPGSPGGPGSDGKPGPPGSQGESGRPGPPGPSGPRGQPGVMGFPGPKGNDGAPGKNGERGGPGGPGPQGPPGKNGETGPQGPPGPTGPGGDKGDTGPPGPQGLQGLPGTGGPPGENGKPGEPGPKGDAGAPGAPGGKGDAGAPGERGPPGLAGAPGLRGGAGPPGPEGGKGAAGPPGPPGAAGTPGLQGMPGERGGLGSPGPKGDKGEPGGPGADGVPGKDGPRGPTGPIGPPGPAGQPGDKGEGGAPGLPGIAGPRGSPGERGETGPPGPAGFPGAPGQNGEPGGKGERGAPGEKGEGGPPGVAGPPGGSGPAGPPGPQGVKGERGSPGGPGAAGFPGARGLPGPPGSNGNPGPPGPSGSPGKDGPPGPAGNTGAPGSPGVSGPKGDAGQPGEKGSPGAQGPPGAPGPLGIAGITGARGLAGPPGMPGPRGSPGPQGVKGESGKPGANGLSGERGPPGPQGLPGLAGTAGEPGRDGNPGSDGLPGRDGSPGGKGDRGENGSPGAPGAPGHPGPPGPVGPAGKSGDRGESGPAGPAGAPGPAGSRGAPGPQGPRGDKGETGERGAAGIKGHRGFPGNPGAPGSPGPAGQQGAIGSPGPAGPRGPVGPSGPPGKDGTSGHPGPIGPPGPRGNRGERGSEGSPGHPGQPGPPGPPGAPGPC
notes: also called collagen III
Question: For B1, which Kd [6] is on record?
Answer: Its Kd is 17 nM.

Question: And the Kd [7]?
Answer: Its Kd is 0.75 nM.
